The values that follow come from article doi:10.1101/2024.09.21.614250 (bioRxiv, 2024).

In assay [1] the target is T1, Shp2^tSH2 (aa5-218), C-terminally SNAP-tag-fused, SC505-labeled (human, UniProt Q06124 5-218, Snap-Cell505 star (SC505) label on the SNAP-tag).
T1 sequence: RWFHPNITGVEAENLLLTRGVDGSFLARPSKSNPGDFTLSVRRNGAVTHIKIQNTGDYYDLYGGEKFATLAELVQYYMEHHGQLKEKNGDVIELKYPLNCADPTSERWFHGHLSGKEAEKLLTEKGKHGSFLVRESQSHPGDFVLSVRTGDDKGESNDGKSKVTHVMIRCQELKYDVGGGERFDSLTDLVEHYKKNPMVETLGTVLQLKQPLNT
In words: FRET or BRET. On the technique in general: In BRET a luciferase serves as donor, and the signal depends on an acceptor being close.

Assay [2] addresses T2, Shp1^tSH2 (aa4-215), C-terminally SNAP-tag-fused, SC505-labeled (human, UniProt P29350 4-215, Snap-Cell505 star (SC505) label on the SNAP-tag).
T2 sequence: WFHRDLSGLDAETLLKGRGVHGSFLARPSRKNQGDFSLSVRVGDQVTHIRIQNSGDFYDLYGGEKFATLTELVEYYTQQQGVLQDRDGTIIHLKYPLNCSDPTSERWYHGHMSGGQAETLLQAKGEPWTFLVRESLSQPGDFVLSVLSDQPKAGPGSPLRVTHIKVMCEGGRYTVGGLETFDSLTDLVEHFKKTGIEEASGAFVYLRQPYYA
In words: FRET or BRET.

B1: His-tagged huPD1 ICD WT, phosphorylated by Lck (domain or fragment)
chain: CSRAARGTIGARRTGQPLKEDPSAVPVFSVDYGELDFQWREKTPEPPVPCVPEQTEYATIVFPSGMGTSSPARRGSADGPRSAQPLRPEDGHCSWPL
modifications: phosphorylated by Lck on the LUV after ATP addition (sites not stated for this assay)
In general, Kd refers to the equilibrium constant for the complex coming apart. Lower therefore signals higher affinity. B1: in assay [1], the Kd is 76 nM. For the same molecule, in assay [2], the binding result is given as “binds”.

B2: His-tagged moPD1 ICD WT, phosphorylated by Lck (domain or fragment)
chain: CSTSMSEARGAGSKDDTLKEEPSAAPVPSVAYEELDFQGREKTPELPTACVHTEYATIVFTEGLGASAMGRRGSADGLQGPRPPRHEDGHCSWPL
modifications: phosphorylated by Lck on the LUV after ATP addition (sites not stated for this assay)
For B2, in assay [1], the Kd was found to be 220 nM. In addition, the binding result in assay [2] was “binds”.
